Results published in PMC2688778 (Structure (London, England : 1993), 2009).

Target: T1, RecE564 R858A (Escherichia coli K12, UniProt P15032 564-866, R858A)
T1 sequence: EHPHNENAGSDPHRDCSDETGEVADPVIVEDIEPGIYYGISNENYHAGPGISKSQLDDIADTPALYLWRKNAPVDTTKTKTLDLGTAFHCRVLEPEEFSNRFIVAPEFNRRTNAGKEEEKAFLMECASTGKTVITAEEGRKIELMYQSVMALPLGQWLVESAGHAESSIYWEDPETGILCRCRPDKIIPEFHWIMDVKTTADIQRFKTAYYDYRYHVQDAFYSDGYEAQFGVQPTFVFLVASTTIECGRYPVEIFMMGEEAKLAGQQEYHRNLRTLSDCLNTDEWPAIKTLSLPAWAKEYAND
Assay: fluorescence anisotropy

B1: F25 (dsDNA)
DNA 1: TAGAGCTTAATTGCTGAATCTGGTG
DNA 2: CACCAGATTCAGCAATTAAGCTCTA
For B1, the Kd was 77 ± 5 nM.
